# Source: patent US9993529B2, “Stable formulations of a hyaluronan-degrading enzyme” (Halozyme, Inc., priority 2011, dated 2018)
# Test: RP-HPLC insulin apparent solubility / percent recovery (content)
# Conditions: 7 days at 2-8° C.
# Method in brief: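 Vial samples withdrawn at each time point, centrifuged, held at 4 °C, run in duplicate by RP-HPLC. Apparent solubility = combined insulin main and desamido peak areas as percent versus standards/initial formulation; purity = main insulin peak as percent of all insulin species.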
substance,measurement,setting,value
Aspart: AspB28 human insulin analog,Solubility of Insulin Aspart,"0.2% methylparaben + […] m-cresol, pH 6.6, NaCl 50 mM",57.7%
same,Solubility of Insulin Aspart,"0.2% methylparaben + […] m-cresol, pH 6.6, NaCl 80 mM",32.1%
same,Solubility of Insulin Aspart,"0.2% methylparaben + […] m-cresol, pH 6.6, NaCl 110 mM",21.1%
same,Solubility of Insulin Aspart,"0.2% methylparaben + […] m-cresol, pH 6.6, NaCl 140 mM",14.7%
same,Solubility of Insulin Aspart,"0.2% methylparaben + […] m-cresol, pH 6.8, NaCl 50 mM",97.2%
same,Solubility of Insulin Aspart,"0.2% methylparaben + […] m-cresol, pH 6.8, NaCl 80 mM",84.1%
same,Solubility of Insulin Aspart,"0.2% methylparaben + […] m-cresol, pH 6.8, NaCl 110 mM",54.2%
same,Solubility of Insulin Aspart,"0.2% methylparaben + […] m-cresol, pH 6.8, NaCl 140 mM",32.2%
same,Solubility of Insulin Aspart,"0.2% methylparaben + […] m-cresol, pH 7.0, NaCl 50 mM",98.7%
same,Solubility of Insulin Aspart,"0.2% methylparaben + […] m-cresol, pH 7.0, NaCl 80 mM",100.2%
same,Solubility of Insulin Aspart,"0.2% methylparaben + […] m-cresol, pH 7.0, NaCl 110 mM",96.3%
same,Solubility of Insulin Aspart,"0.2% methylparaben + […] m-cresol, pH 7.0, NaCl 140 mM",67.9%
same,Solubility of Insulin Aspart,"0.2% methylparaben + […] m-cresol, pH 7.2, NaCl 50 mM",99.0%
same,Solubility of Insulin Aspart,"0.2% methylparaben + […] m-cresol, pH 7.2, NaCl 80 mM",100.2%
same,Solubility of Insulin Aspart,"0.2% methylparaben + […] m-cresol, pH 7.2, NaCl 110 mM",99.5%
same,Solubility of Insulin Aspart,"0.2% methylparaben + […] m-cresol, pH 7.2, NaCl 140 mM",101.6%
same,Solubility of Insulin Aspart,"0.2% methylparaben + […] m-cresol, pH 7.4, NaCl 50 mM",99.1%
same,Solubility of Insulin Aspart,"0.2% methylparaben + […] m-cresol, pH 7.4, NaCl 80 mM",100.5%
same,Solubility of Insulin Aspart,"0.2% methylparaben + […] m-cresol, pH 7.4, NaCl 110 mM",99.6%
same,Solubility of Insulin Aspart,"0.2% methylparaben + […] m-cresol, pH 7.4, NaCl 140 mM",99.6%
same,Solubility of Insulin Aspart,"0.2% methylparaben + […] m-cresol, pH 7.6, NaCl 50 mM",99.3%
same,Solubility of Insulin Aspart,"0.2% methylparaben + […] m-cresol, pH 7.6, NaCl 80 mM",100.6%
same,Solubility of Insulin Aspart,"0.2% methylparaben + […] m-cresol, pH 7.6, NaCl 110 mM",99.8%
same,Solubility of Insulin Aspart,"0.2% methylparaben + […] m-cresol, pH 7.6, NaCl 140 mM",99.8%
same,Solubility of Insulin Aspart,"0.2% phenol + […] m-cresol, pH 6.6, NaCl 50 mM",91.8%
same,Solubility of Insulin Aspart,"0.2% phenol + […] m-cresol, pH 6.6, NaCl 80 mM",59.2%
same,Solubility of Insulin Aspart,"0.2% phenol + […] m-cresol, pH 6.6, NaCl 110 mM",58.0%
same,Solubility of Insulin Aspart,"0.2% phenol + […] m-cresol, pH 6.6, NaCl 140 mM",39.3%
same,Solubility of Insulin Aspart,"0.2% phenol + […] m-cresol, pH 6.8, NaCl 50 mM",98.8%
same,Solubility of Insulin Aspart,"0.2% phenol + […] m-cresol, pH 6.8, NaCl 80 mM",91.8%
same,Solubility of Insulin Aspart,"0.2% phenol + […] m-cresol, pH 6.8, NaCl 110 mM",72.8%
same,Solubility of Insulin Aspart,"0.2% phenol + […] m-cresol, pH 6.8, NaCl 140 mM",50.9%
same,Solubility of Insulin Aspart,"0.2% phenol + […] m-cresol, pH 7.0, NaCl 50 mM",99.1%
same,Solubility of Insulin Aspart,"0.2% phenol + […] m-cresol, pH 7.0, NaCl 80 mM",100.6%
same,Solubility of Insulin Aspart,"0.2% phenol + […] m-cresol, pH 7.0, NaCl 110 mM",99.9%
same,Solubility of Insulin Aspart,"0.2% phenol + […] m-cresol, pH 7.0, NaCl 140 mM",88.9%
same,Solubility of Insulin Aspart,"0.2% phenol + […] m-cresol, pH 7.2, NaCl 50 mM",99.1%
same,Solubility of Insulin Aspart,"0.2% phenol + […] m-cresol, pH 7.2, NaCl 80 mM",100.5%
same,Solubility of Insulin Aspart,"0.2% phenol + […] m-cresol, pH 7.2, NaCl 110 mM",100.0%
same,Solubility of Insulin Aspart,"0.2% phenol + […] m-cresol, pH 7.2, NaCl 140 mM",99.7%
same,Solubility of Insulin Aspart,"0.2% phenol + […] m-cresol, pH 7.4, NaCl 50 mM",99.2%
same,Solubility of Insulin Aspart,"0.2% phenol + […] m-cresol, pH 7.4, NaCl 80 mM",100.6%
same,Solubility of Insulin Aspart,"0.2% phenol + […] m-cresol, pH 7.4, NaCl 110 mM",100.0%
same,Solubility of Insulin Aspart,"0.2% phenol + […] m-cresol, pH 7.4, NaCl 140 mM",99.7%
same,Solubility of Insulin Aspart,"0.2% phenol + […] m-cresol, pH 7.6, NaCl 50 mM",99.2%
same,Solubility of Insulin Aspart,"0.2% phenol + […] m-cresol, pH 7.6, NaCl 80 mM",100.8%
same,Solubility of Insulin Aspart,"0.2% phenol + […] m-cresol, pH 7.6, NaCl 110 mM",100.2%
same,Solubility of Insulin Aspart,"0.2% phenol + […] m-cresol, pH 7.6, NaCl 140 mM",99.8%
same,Solubility of Insulin Aspart,"[…] phenol + […] m-cresol, pH 6.6, NaCl 50 mM",97.9%
same,Solubility of Insulin Aspart,"[…] phenol + […] m-cresol, pH 6.6, NaCl 80 mM",86.3%
same,Solubility of Insulin Aspart,"[…] phenol + […] m-cresol, pH 6.6, NaCl 110 mM",54.4%
same,Solubility of Insulin Aspart,"[…] phenol + […] m-cresol, pH 6.6, NaCl 140 mM",38.3%
same,Solubility of Insulin Aspart,"[…] phenol + […] m-cresol, pH 6.8, NaCl 50 mM",99.8%
same,Solubility of Insulin Aspart,"[…] phenol + […] m-cresol, pH 6.8, NaCl 80 mM",97.9%
same,Solubility of Insulin Aspart,"[…] phenol + […] m-cresol, pH 6.8, NaCl 110 mM",97.5%
same,Solubility of Insulin Aspart,"[…] phenol + […] m-cresol, pH 6.8, NaCl 140 mM",60.5%
same,Solubility of Insulin Aspart,"[…] phenol + […] m-cresol, pH 7.0, NaCl 50 mM",99.7%
same,Solubility of Insulin Aspart,"[…] phenol + […] m-cresol, pH 7.0, NaCl 80 mM",99.3%
same,Solubility of Insulin Aspart,"[…] phenol + […] m-cresol, pH 7.0, NaCl 110 mM",99.3%
same,Solubility of Insulin Aspart,"[…] phenol + […] m-cresol, pH 7.0, NaCl 140 mM",100.2%
same,Solubility of Insulin Aspart,"[…] phenol + […] m-cresol, pH 7.2, NaCl 50 mM",99.1%
same,Solubility of Insulin Aspart,"[…] phenol + […] m-cresol, pH 7.2, NaCl 80 mM",99.2%
same,Solubility of Insulin Aspart,"[…] phenol + […] m-cresol, pH 7.2, NaCl 110 mM",99.2%
same,Solubility of Insulin Aspart,"[…] phenol + […] m-cresol, pH 7.2, NaCl 140 mM",101.1%
same,Solubility of Insulin Aspart,"[…] phenol + […] m-cresol, pH 7.4, NaCl 50 mM",100.0%
same,Solubility of Insulin Aspart,"[…] phenol + […] m-cresol, pH 7.4, NaCl 80 mM",99.6%
same,Solubility of Insulin Aspart,"[…] phenol + […] m-cresol, pH 7.4, NaCl 110 mM",99.5%
same,Solubility of Insulin Aspart,"[…] phenol + […] m-cresol, pH 7.4, NaCl 140 mM",101.1%
same,Solubility of Insulin Aspart,"[…] phenol + […] m-cresol, pH 7.6, NaCl 50 mM",100.1%
same,Solubility of Insulin Aspart,"[…] phenol + […] m-cresol, pH 7.6, NaCl 80 mM",99.7%
same,Solubility of Insulin Aspart,"[…] phenol + […] m-cresol, pH 7.6, NaCl 110 mM",99.4%
same,Solubility of Insulin Aspart,"[…] phenol + […] m-cresol, pH 7.6, NaCl 140 mM",101.1%
